In patent US20200157151A1, “PEPTIDE COMPOUNDS, CONJUGATE COMPOUNDS AND USES THEREOF FOR TREATING INFLAMMATORY DISEASES” (TRANSFERT PLUS, S.E.C., priority 2017, published 2020):
Square brackets hold non-standard residues; d marks the D form. Ends that are not written are not given here. Nle = CCCC[C@H](N)C(=O)O

Molecular target: Human recombinant Sortilin chimera protein from R&D Systems (#3154-ST) (human), Q99523
Test: SPR (Biacore), Sortilin immobilized on CM5 chip, peptide injected

Sequence of Human recombinant Sortilin chimera protein from R&D Systems (#3154-ST) (human), Q99523 (Q99523 78-755, change not shown): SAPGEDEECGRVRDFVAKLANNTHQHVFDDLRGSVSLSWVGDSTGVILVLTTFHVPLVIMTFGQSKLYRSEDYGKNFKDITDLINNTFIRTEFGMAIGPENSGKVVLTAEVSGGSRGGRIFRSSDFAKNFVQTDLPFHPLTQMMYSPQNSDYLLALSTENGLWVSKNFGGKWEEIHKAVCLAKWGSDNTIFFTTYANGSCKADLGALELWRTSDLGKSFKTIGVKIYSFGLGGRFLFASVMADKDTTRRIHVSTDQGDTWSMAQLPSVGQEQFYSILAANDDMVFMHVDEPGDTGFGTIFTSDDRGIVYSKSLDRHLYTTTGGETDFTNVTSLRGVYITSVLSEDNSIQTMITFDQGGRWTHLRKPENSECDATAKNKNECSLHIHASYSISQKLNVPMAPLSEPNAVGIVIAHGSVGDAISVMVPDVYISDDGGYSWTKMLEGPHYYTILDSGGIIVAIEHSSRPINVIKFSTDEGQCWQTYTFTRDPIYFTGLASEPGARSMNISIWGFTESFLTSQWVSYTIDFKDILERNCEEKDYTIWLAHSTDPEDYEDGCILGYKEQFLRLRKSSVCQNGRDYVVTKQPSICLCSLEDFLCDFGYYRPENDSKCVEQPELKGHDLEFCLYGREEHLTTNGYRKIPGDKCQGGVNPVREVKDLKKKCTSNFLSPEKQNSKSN

Binder	Kd [nM]
Ac-GVRAKAGVRN[Nle]FKSESY [KBP-106]	46
YKSLRRKAPRWDAPLRDPALRQLL (modifications not checked) [KBP-201]	3.3
